Results from the supplement of paper PMC12764529.
± gives the half width of the 95% confidence interval.

Experiments:
[1] = folding stability dG unfold from chymotrypsin proteolysis; higher = more stable
How it was run: (§1)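 Bayesian fitting of sequencing counts gave K50 for each design. Unfolding free energy followed by setting this against a sequence-predicted unfolded-state K50 and a shared folded-state K50, either per protease or with trypsin and chymotrypsin combined. The designs, under 80 residues and lacking cysteine, were digested in a PA-tagged cDNA display format at 11 threefold-diluted protease concentrations and without protease, and only those with AlphaFold2 dimer inter-PAE above 15 were kept.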

[2] = folding stability dG unfold from trypsin proteolysis; higher = more stable
How it was run: as §1

[3] = folding stability dG unfold (combined trypsin and chymotrypsin); higher = more stable
How it was run: as §1

Sequence	folding stability dG unfold [1] [kcal/mol]	folding stability dG unfold [2] [kcal/mol]	folding stability dG unfold [3] [kcal/mol]
SAGGMKTVNLTYTRYLPDKTLEEAKELAKKDLESRGLKILSLPVSREPGAGVVTVSATVEVAPPSLLSAGGS [r16_287_JUSTAS]	3.99 ± 0.1	3.67 ± 0.12	3.82 ± 0.27
SAGGMKTYEYELELEGGGRLRIKITEDPNNPVYTVTFYSPEGKKLKTITIPANSIEEALKEAIELLKSAGGS [r16_158_JUSTAS]	4.79 ± 0.12	4.6 ± 0.29	4.73 ± 0.18
SAGGMKVDPKTNITTIEFPSSNLPELKEAIEKTGEKPVVVILKDPNSDREVRITLTKEEALKYLEKKSAGGS [r16_797_JUSTAS]	0.71 ± 0.1	0.209 ± 0.14	0.565 ± 0.18
SAGGMKVEKNTIYIEVEKDMSAEEVAKKIAEELKKKGLKVEIKVEKKEDGTKVIRIKVDGKEIEIYASAGGS [r16_771_TrROS_Hall]	1.13 ± 0.18	1.84 ± 0.094	1.51 ± 0.3
SAGGMKVEVEKDPIKDGTTITVETGLDPEEVRAFLEELLGPPLEDVTFETAPDGTLVVTARVPPDVGSAGGS [r16_605_JUSTAS]	0.564 ± 0.048	0.627 ± 0.054	0.816 ± 0.12
SAGGMKVIEVEMTADEVKALVKELAEKDDLKIYIYVDGKKIELTVDEIKKIPPENQKVTIIIEKKKESAGGS [r16_628_TrROS_Hall]	3.11 ± 0.14	2.95 ± 0.22	3.07 ± 0.28
SAGGMKVRVRLPDGTEVELEVTEVTVSTDPSTGTPVYTITLANGEKLTVTVPVDKPVRPGETVTVTPESAGG [r13_390_JUSTAS]	3.71 ± 0.053	3.72 ± 0.056	3.81 ± 0.056
SAGGMKVTEEPDATIVEVPLPDRKLTLTITRDGPGVTVTVTEDGEVLKTIPTDGPAEEAIAAAIAALSAGGS [r8_276_JUSTAS]	1.43 ± 0.059	1.04 ± 0.016	1.29 ± 0.07
SAGGMKVTITVTDPEAFRAAVEALPEVPPEQVSTSPLPGNSYTATFPSEKAVELLKAAGVPITEIAASAGGS [r16_381_JUSTAS]	0.63 ± 0.074	0.377 ± 0.022	0.568 ± 0.05
SAGGMKVTVTEDGSSSKVTITIKDPKTGIEKTYTATATVLPDGTVVYTITYPDGSKKTIPSSELELSSAGGS [r16_154_JUSTAS]	4.02 ± 0.051	2.11 ± 0.087	3.61 ± 0.11
SAGGMKVTVYPDGTVSVEIEPGQTLTVSLGDKEYTVTAEYPSITITTTPVPVPPPAVPPENVDPSLVSAGGS [r16_600_JUSTAS]	0.984 ± 0.051	1.54 ± 0.11	1.23 ± 0.15
SAGGMKYLVTITITDPDTGQERVIEVEFPDMTPEEIKEAAEELAEEIASEQGLNLKVEVEVTPIPLLSAGGS [r8_185_JUSTAS]	3.34 ± 0.077	3.95 ± 0.11	3.55 ± 0.068
SAGGMLEVTEEPLELGDRPVTRTTITLPDGTVVTVTTEAGTGAMTVTYPDGTTKTVTSEEDALAALLSAGGS [r8_168_JUSTAS]	1.19 ± 0.051	2.66 ± 0.11	2.02 ± 0.094
SAGGMLGFRAETDLFVEPIPPGAEVEPLRIGDRLLLIVRHPDGSYTINLFTPVRPLPVPPAFSTANAASAGG [r13_804_TrMRF]	1.64 ± 0.069	1.6 ± 0.036	1.68 ± 0.051
SAGGMLILIKVKNKKYEIEINGKKIEVEEKDGYLIIKVSPEALEALKKIPNLENIEEIKIFPEEELKSAGGS [r8_493_TrROS_Hall]	2.57 ± 0.033	2.07 ± 0.035	2.32 ± 0.089
SAGGMLLVRIRVKLSPEQIKALEEAGFEVVEERDGEVVVRLEVSPEQLEKLKALFPDAEIEVVELPPESAGG [r13_261_TrROS_Hall]	4.96 ± 0.1	5.44 ± 0.49	5.26 ± 0.29
SAGGMLPGEPEVELVLEIEIDVPPGEISAEELERLLRELFPGAEVVDVRVEEEGGKLRIEVVIRLPPSAGGS [r8_202_TrROS_Hall]	2.67 ± 0.058	3.42 ± 0.14	3.17 ± 0.13
SAGGMLPLVVKVKTPDGEEYTFVVAYNPETSELWLPLPKEPTWRNVPLTEASSIPEFQIVEARPLALESAGG [r13_994_TrMRF]	0.943 ± 0.064	0.348 ± 0.056	0.761 ± 0.087

Sequence	folding stability dG unfold [1] [kcal/mol]	folding stability dG unfold [2] [kcal/mol]	folding stability dG unfold [3] [kcal/mol]
SAGGMLRIRIDGREIEIGMTVEEILAAIEKELGREISPELREALRKAKTPEEIVEALRKLGLKIEIESAGGS [r16_601_TrROS_Hall]	5.17 ± 0.086	3.66 ± 0.08	4.8 ± 0.087
SAGGMLVRVTLPSGETVELPVTSLDAAARRLREELGLPAGARLRVEVYDPVTGEVTEYELVIPVPEPVSAGG [r13_145_TrMRF]	4.33 ± 0.062	4.92 ± 0.18	4.68 ± 0.1
SAGGMMKLELEIEKEDGKKYKIEVEYNKEEPVLKIKIYDKNGKKIKEIEIKAKSLEEALEAAKKLLKSAGGS [r16_158_TrROS_Hall]	3.99 ± 0.2	3.3 ± 0.14	3.68 ± 0.22
SAGGMMTVRIVIEKDGKKITITAKVTKIEFDEETGKLTITFEDGSKKEIDLDKLKIKKIEVEPAPEEESAGG [r13_636_TrROS_Hall]	3.06 ± 0.19	1.66 ± 0.078	2.81 ± 0.21
SAGGMMYLIKVDTKEELKELAEAPGAKIVEEKEVNGKLYLLIEFPPGVTKIKIDVETRKIVEIEKLPSAGGS [r8_251_TrROS_Hall]	1.58 ± 0.15	0.759 ± 0.13	1.37 ± 0.26
SAGGMNMKPIKKETFTLPDENGNEVKIEIYKLEDGSYIIKITYPSGKTETFIVPDEETAKNLKIEIKPSAGG [r13_109_TrMRF]	2.91 ± 0.046	1.66 ± 0.12	2.62 ± 0.18
SAGGMNTESSFPITLPDGRKVLKNVKTDPETGEITVTVTSIGDPNVKTTEKVDPENPEKVLETVTKPESAGG [r13_400_JUSTAS]	0.206 ± 0.11	-0.353 ± 0.037	0.0461 ± 0.15
SAGGMNVSYLFSKSVPKEEIEAYLKKLDPNKKYKFEELEPEEIEKLPESIEVIEKPVDETLRLVLVEESAGG [r13_649_JUSTAS]	0.765 ± 0.11	-0.323 ± 0.092	0.473 ± 0.12
SAGGMNVTVTVELVPLPDEPVLFVTVETEDGSVSVITFDPATGTATVLKVSPTKTEITTVPAEDILLASAGG [r13_328_TrMRF]	2.79 ± 0.11	1.8 ± 0.13	2.43 ± 0.2
SAGGMPADTPVIPIEILDIRVEPDPESDSYTAEVKVRFPDGTEKTFTIKLPKDATLEDVIEKAKELAASAGG [r13_578_TrMRF]	4.09 ± 0.11	3.83 ± 0.2	4.1 ± 0.18
SAGGMPDITEVELLDVEYDPETGTYRFRVKVKLKDGTEREVEIPFVDEDGDFGIEEILKAAEELVEESAGGS [r16_221_TrMRF]	4 ± 0.045	2.71 ± 0.14	3.66 ± 0.18
SAGGMPEDMKLKFKVVDFRPHPHPDGYQIVELFYNDKLLRRLRVPPGLAVKLAKELPEDVALVTLPESAGGS [r8_41_TrMRF]	1.53 ± 0.14	0.828 ± 0.086	1.28 ± 0.09
SAGGMPENMKWRPIPFTQKNPDGLTLKMKIWVFPDPYILIEHEVEDNGKPVAEIPILLPADDPEDLKSAGGS [r16_714_TrROS]	0.513 ± 0.42	-0.66 ± 0.6	0.389 ± 0.2
SAGGMPGVRPVVTVTVLVKFPGPDETKTVTITMRPEELAAGVTPEAAARRVAEALGHDIEILEIERKSAGGS [r16_554_JUSTAS]	1.86 ± 0.031	1.4 ± 0.04	1.61 ± 0.088
SAGGMPIILLEEKKLPNGEPVYRITLLERDPNDGSWRPIEEDELKTKEEAEERAKAIAEKRGVELLKSAGGS [r16_512_JUSTAS]	1.34 ± 0.036	1.57 ± 0.026	1.43 ± 0.053
SAGGMPKTIEVEIVFKRDEEGKIGIDKIKKAAEELAKKFPEVKKVEVDIEEDPETDYVKVKVKVEVESAGGS [r8_258_TrMRF]	2.34 ± 0.032	1.75 ± 0.059	2.1 ± 0.14
SAGGMPLDSPEVQRRLAALKEALAKAEALREAGLEVKVVSIEFDPETREVTIEVEVRPAPPPPPEEPSAGGS [r8_277_TrROS_Hall]	1.77 ± 0.083	1.81 ± 0.1	1.92 ± 0.12
